Assay results taken from patent US20230212319A1, “NOVEL ANTIGEN BINDING DOMAINS AND SYNTHETIC ANTIGEN RECEPTORS INCORPORATING THE SAME” (University of Southern California, priority 2020, published 2023).

What follows are molecules tested on RAJI cells (assay: JNG assay, co-culture with RAJI cells). Conditions: JNG cells expressing construct, co-culture with Raji.
Assay type: cell-based
Protocol: Cellular supernatant is collected and assayed for the induction of cytokines (e.g., IL2).
JNG (Jurkat cells expressing EGFP under an NFAT promoter) were infected with lentiviral vectors encoding different single chain and multi-chain SARs by spinfection in the presence of 8 µg/ml of Polybrene® (Sigma, Catalog no. H9268). The Jurkat-NFAT-GFP cells are engineered in such a way that the IL-2 promoter, which carries NFAT binding sites, is cloned upstream of the GFP gene. These cells have been used to study signaling via TCR and CAR. The different SARs were stably expressed in Jurkat NFAT-GFP cells by lentiviral mediated gene transfer, followed by selection with puromycin or blasticidin. No drug selection was used in case the construct lacked an antibiotic resistance gene. The SAR-expressing Jurkat-NFAT-GFP cells were cocultured with the target cells at E:T ratio of approximately 1:2 for approximately 4 hours to 18 hours. When the interaction between SIRs and their target antigen results in activation of the NFAT pathway, GFP expression is induced. […] GFP expression was monitored by FACS analysis. The Jurkat-NFAT-GFP (parental) cells were used as control. The structure of different constructs can be determined based on their names. […] The sequence of the other constructs in the table can be similarly determined from their names and by referring to the different Tables of this disclosure that provide the names and SEQ ID NO of the different modules. Alternatively, the composition and modular architecture of the different SAR constructs can be determined from their sequences by bioinformatics tools, including using nucleic acid and amino acids homology searches. A SAR is considered positive in the assay in case the SAR expressing Jurkat-NFAT-GFP cells show greater % GFP positive cells when cultured with the target cell line as compared to parental Jurkat-NFAT-GFP cells. […] In general, the number +/-, +, 2+, 3+, 4+, 5+ refer to approximately 5%, 10%, 20%, 30%, 40% and 50% GFP positive cells. The % of GFP induction in the above assay is dependent not only the relative strength of the SAR but also, among other factors, on the relative level of expression of the SAR in the JNG cells and the relative level of expression of the target antigen in the target cell line. To control for the difference in gene transduction efficiency of the different SAR constructs, the experiment was conducted with JNG cells transduced with SAR constructs co-expressing a drug resistance gene (e.g., puromycin or PAC) followed by drug selection to generate a stable population of SAR-expressing cells. It is to be noted that the drug resistance gene (e.g., PAC) in the SAR constructs is optional and in vivo studies were conducted with SAR constructs lacking the PAC gene.

Molecule	NFAT-GFP ASSAY: Raji
22011 (protein) MALPVTALLLPLALLLHAARPQLQLQESGPGLVKPSETLSLTCTVSGDSISSGDYYWGWIRQPPGKGLEWIGHIYYSGVTYYNPSLKSRVTISVDTSRNQFSLKLSSVTAADTAVYYCTREDSSNWRSRGQGTLVTVSSLEDLKNVFPPEVAVFEPSEAEISHTQKATLVCLATGFYPDHVELSWWVNGKEVHSGVCTDPQPLKEQPALNDSRYCLSSRLRVSATFWQNPRNHFRCQVQFYGLSENDEWTQDRAKPVTQIVSAEAWGRADCGFTSESYQQGVLSATILYEILLGKATLYAVLVSALVLMAMVKRKDSRGRAKRSGSGATNFSLLKQAGDVEENPGPTSMDWIWRILFLVGAATGAHSFEQLQLQESGPGLVKPSETLSLTCTVSGGSISSGDYYWGWIRQPPGKGLEWIGHIYYSGATYYNPSLKSRVTISVDTSRNQFSLKLSSVTAADTAVYYCTRDDSSNWRSRGQGTLVTVSSTRIQNPDPAVYQLRDSKSSDKSVCLFTDFDSQTNVSQSKDSDVYITDKCVLDMRSMDFKSNSAVAWSNKSDFACANAFNNSIIPEDTFFPSPESSCDVKLVEKSFETDTNLNFQNLSVIGFRILLLKVAGFNLLMTLRLWSSRAKRSGSGVKQTLNFDLLKLAGDVESNPGPSRGHMTEYKPTVRLATRDDVPRAVRTLAAAFADYPATRHTVDPDRHIERVTELQELFLTRVGLDIGKVWVADDGAAVAVWTTPESVEAGAVFAEIGPRMAELSGSRLAAQQQMEGLLAPHRPKEPAWFLATVGVSPDHQGKGLGSAVVLPGVEAAERAGVPAFLETSAPRNLPFYERLGFTVTADVEVPEGPRTWCMTRKPGA	+/- (refer to approximately 5%, 10%, 20%, 30%, 40% and 50% GFP positive cells)
22008 (protein) MALPVTALLLPLALLLHAARPQLQLQESGPGLVKPSETLSLTCTVSGDSISSGDYYWGWIRQPPGKGLEWIGHIYYSGVTYYNPSLKSRVTISVDTSRNQFSLKLSSVTAADTAVYYCTREDSSNWRSRGQGTLVTVSSLEDLKNVFPPEVAVFEPSEAEISHTQKATLVCLATGFYPDHVELSWWVNGKEVHSGVCTDPQPLKEQPALNDSRYCLSSRLRVSATFWQNPRNHFRCQVQFYGLSENDEWTQDRAKPVTQIVSAEAWGRADCGFTSESYQQGVLSATILYEILLGKATLYAVLVSALVLMAMVKRKDSRGRAKRSGSGATNFSLLKQAGDVEENPGPTSMDWIWRILFLVGAATGAHSFEVQLLESGGGLVQPGGSLRLSCAASGFIFSSYAMSWVRQAPGKGQEWVSGVSGTGVNTYYADSVKGRFTISRDNSKNTLYLQMNSLRAEDTAVYYCASGKGWDSGSWYEDYRGQGTLVTVSSTRIQNPDPAVYQLRDSKSSDKSVCLFTDFDSQTNVSQSKDSDVYITDKCVLDMRSMDFKSNSAVAWSNKSDFACANAFNNSIIPEDTFFPSPESSCDVKLVEKSFETDTNLNFQNLSVIGFRILLLKVAGFNLLMTLRLWSSRAKRSGSGVKQTLNFDLLKLAGDVESNPGPSRGHMTEYKPTVRLATRDDVPRAVRTLAAAFADYPATRHTVDPDRHIERVTELQELFLTRVGLDIGKVWVADDGAAVAVWTTPESVEAGAVFAEIGPRMAELSGSRLAAQQQMEGLLAPHRPKEPAWFLATVGVSPDHQGKGLGSAVVLPGVEAAERAGVPAFLETSAPRNLPFYERLGFTVTADVEVPEGPRTWCMTRKPGA	+/- (refer to approximately 5%, 10%, 20%, 30%, 40% and 50% GFP positive cells)
22033 (protein) MALPVTALLLPLALLLHAARPQLQLQESGPGLVKPSETLSLTCTVSGDSISSGDYYWGWIRQPPGKGLEWIGHIYYSGVTYYNPSLKSRVTISVDTSRNQFSLKLSSVTAADTAVYYCTREDSSNWRSRGQGTLVTVSSLEDKTHTCPPCPAEVKTDSTDHVKPKETENTKQPSKSCHKPKAIVHTEKVNMMSLTVLGLRMLFAKTVAVNFLLTAKLFFLRAKRSGSGVKQTLNFDLLKLAGDVESNPGPTSMDWIWRILFLVGAATGAHSFEVQLVESGGGVVQPGRSLRLSCAASGFSFSGYGMHWVRQAPGKGLEWVAYISYDGSNKYYADSVKGRFTISRDNSKNTLYLQMNSLRAEDTAVYYCAKDPAWGLRLGESSSYDFDIWGQGTMVTVSSTRIQNPDPAVYQLRDSKSSDKSVCLFTDFDSQTNVSQSKDSDVYITDKCVLDMRSMDFKSNSAVAWSNKSDFACANAFNNSIIPEDTFFPSPESSCDVKLVEKSFETDTNLNFQNLSVIGFRILLLKVAGFNLLMTLRLWSSRAKRSGSGVKQTLNFDLLKLAGDVESNPGPSRGHMTEYKPTVRLATRDDVPRAVRTLAAAFADYPATRHTVDPDRHIERVTELQELFLTRVGLDIGKVWVADDGAAVAVWTTPESVEAGAVFAEIGPRMAELSGSRLAAQQQMEGLLAPHRPKEPAWFLATVGVSPDHQGKGLGSAVVLPGVEAAERAGVPAFLETSAPRNLPFYERLGFTVTADVEVPEGPRTWCMTRKPGA	+/- (refer to approximately 5%, 10%, 20%, 30%, 40% and 50% GFP positive cells)
22032 (protein) MALPVTALLLPLALLLHAARPQLQLQESGPGLVKPSETLSLTCTVSGDSISSGDYYWGWIRQPPGKGLEWIGHIYYSGVTYYNPSLKSRVTISVDTSRNQFSLKLSSVTAADTAVYYCTREDSSNWRSRGQGTLVTVSSLEGSEVKTDSTDHVKPKETENTKQPSKSCHKPKAIVHTEKVNMMSLTVLGLRMLFAKTVAVNFLLTAKLFFLRAKRSGSGVKQTLNFDLLKLAGDVESNPGPTSMDWIWRILFLVGAATGAHSFEVQLVESGGGVVQPGRSLRLSCAASGFSFSGYGMHWVRQAPGKGLEWVAYISYDGSNKYYADSVKGRFTISRDNSKNTLYLQMNSLRAEDTAVYYCAKDPAWGLRLGESSSYDFDIWGQGTMVTVSSTRIQNPDPAVYQLRDSKSSDKSVCLFTDFDSQTNVSQSKDSDVYITDKCVLDMRSMDFKSNSAVAWSNKSDFACANAFNNSIIPEDTFFPSPESSCDVKLVEKSFETDTNLNFQNLSVIGFRILLLKVAGFNLLMTLRLWSSRAKRSGSGVKQTLNFDLLKLAGDVESNPGPSRGHMTEYKPTVRLATRDDVPRAVRTLAAAFADYPATRHTVDPDRHIERVTELQELFLTRVGLDIGKVWVADDGAAVAVWTTPESVEAGAVFAEIGPRMAELSGSRLAAQQQMEGLLAPHRPKEPAWFLATVGVSPDHQGKGLGSAVVLPGVEAAERAGVPAFLETSAPRNLPFYERLGFTVTADVEVPEGPRTWCMTRKPGA	+/- (refer to approximately 5%, 10%, 20%, 30%, 40% and 50% GFP positive cells)
22031 (protein) MALPVTALLLPLALLLHAARPQLQLQESGPGLVKPSETLSLTCTVSGDSISSGDYYWGWIRQPPGKGLEWIGHIYYSGVTYYNPSLKSRVTISVDTSRNQFSLKLSSVTAADTAVYYCTREDSSNWRSRGQGTLVTVSSLEGSPIKTDVITMDPKDNCSKDANDTLLLQLTNTSAYYMYLLLLLKSVVYFAIITCCLLRRTAFCCNGEKSRAKRSGSGATNFSLLKQAGDVEENPGPTSMDWIWRILFLVGAATGAHSFEVQLVESGGGVVQPGRSLRLSCAASGFSFSGYGMHWVRQAPGKGLEWVAYISYDGSNKYYADSVKGRFTISRDNSKNTLYLQMNSLRAEDTAVYYCAKDPAWGLRLGESSSYDFDIWGQGTMVTVSSTRIQNPDPAVYQLRDSKSSDKSVCLFTDFDSQTNVSQSKDSDVYITDKCVLDMRSMDFKSNSAVAWSNKSDFACANAFNNSIIPEDTFFPSPESSCDVKLVEKSFETDTNLNFQNLSVIGFRILLLKVAGFNLLMTLRLWSSRAKRSGSGVKQTLNFDLLKLAGDVESNPGPSRGHMTEYKPTVRLATRDDVPRAVRTLAAAFADYPATRHTVDPDRHIERVTELQELFLTRVGLDIGKVWVADDGAAVAVWTTPESVEAGAVFAEIGPRMAELSGSRLAAQQQMEGLLAPHRPKEPAWFLATVGVSPDHQGKGLGSAVVLPGVEAAERAGVPAFLETSAPRNLPFYERLGFTVTADVEVPEGPRTWCMTRKPGA	+/- (refer to approximately 5%, 10%, 20%, 30%, 40% and 50% GFP positive cells)
22006 (protein) MALPVTALLLPLALLLHAARPLEGKPIPNPLLGLDSTGSGEDLKNVFPPEVAVFEPSKAEIAHTQKATLVCLATGFYPDHVELSWWVNGKEVHSGVCTDPQPLKEQPALNDSRYCLSSRLRVSATFWQNPRNHFRCQVQFYGLSENDEWTQDRAKPVTQIVSAEAWGRADCGITSASYHQGVLSATILYEILLGKATLYAVLVSALVLMAMVKRKDSRGRAKRSGSGATNFSLLKQAGDVEENPGPTSTMALPVTALLLPLALLLHAARPEVQLVESGGGLVQPGGSLRLSCTFSGGTFSSYTMGWFRQAPGKEREFVAEVRWGGVTTYSNSLKDRFSISEDSVKNAVYLQMNSLKPEDTAVYYCAAVRQMYMTVVPDYWGQGTLVTVSSTREQKLISEEDGSGIQNPDPAVYQLRDSKSSDKSVCLFTDFDSQTNVSQSKDSDVYITDKCVLDMRSMDFKSNSAVAWSNKSDFACANAFNNSIIPEDTFFPSSDVPCDVKLVEKSFETDTNLNFQNLSVIGFRILLLKVAGFNLLMTLRLWSSRAKRSGSGVKQTLNFDLLKLAGDVESNPGPSRGHMTEYKPTVRLATRDDVPRAVRTLAAAFADYPATRHTVDPDRHIERVTELQELFLTRVGLDIGKVWVADDGAAVAVWTTPESVEAGAVFAEIGPRMAELSGSRLAAQQQMEGLLAPHRPKEPAWFLATVGVSPDHQGKGLGSAVVLPGVEAAERAGVPAFLETSAPRNLPFYERLGFTVTADVEVPEGPRTWCMTRKPGA	+ (refer to approximately 5%, 10%, 20%, 30%, 40% and 50% GFP positive cells)
